The target of assay [1] is hBMP-10 (human) (UniProt O95393). Briefly: cell-based or functional assay.
Assay [2] addresses hBMP-9 (human) (UniProt Q9UK05). The assay is described as follows: cell-based or functional assay.
Assay [3] addresses hBMP-10 (human) (UniProt O95393). Briefly: SPR kinetics, captured CHO-cell-derived protein. (In SPR one partner is held on a chip, and binding of the other changes the refractive index at the surface.)
Assay [4] addresses hBMP-9 (human) (UniProt Q9UK05). The assay is described as follows: SPR kinetics, captured CHO-cell-derived protein.

Chain of UniProt Q9UK05 (Q9UK05 320-429 limits assumed): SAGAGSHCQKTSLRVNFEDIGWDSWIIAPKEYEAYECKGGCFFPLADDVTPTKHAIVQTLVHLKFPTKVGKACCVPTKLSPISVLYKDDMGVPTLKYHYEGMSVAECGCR
Chain of UniProt O95393 (O95393 317-424 limits assumed): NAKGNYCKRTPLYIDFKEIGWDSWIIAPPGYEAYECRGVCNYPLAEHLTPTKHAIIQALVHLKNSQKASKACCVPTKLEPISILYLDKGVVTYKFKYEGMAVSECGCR

As to “hENG(26-586)-hFc, CHO-cell-derived, with N-terminally truncated Fc domain (Fc fusion)”, the IC50 (nM), BRE-luciferase reporter-gene assay in A204 cells is 7.9 nM with hBMP-10 (human) [1] and 0.26 nM with hBMP-9 (human) [2]. Further, the values for the Kd in the assay with hBMP-10 (human) [3] and in the assay with hBMP-9 (human) [4] were 0.49 nM and 0.033 nM, respectively. Further, the koff (usually a measure of how fast the partners let go of each other) was found to be 0.011 s⁻¹ with hBMP-10 (human) [3] and 0.0025 s⁻¹ with hBMP-9 (human) [4].

The values are drawn from US20150307588A1.
